Assay results from publication PMC11167000, “Molecular mechanism of BMP signal control by Twisted gastrulation” (Nature Communications, 2024).
Blank lines part the entries; values can stand above or below the binder they belong to.

B1: human CHRDL2 (A25–T429) (natural protein)
chain: ETGARARPDMFCLFHGKRYSPGESWHPYLEPQGLMYCLRCTCSEGAHVSCYRLHCPPVHCPQPVTEPQQCCPKCVEPHTPSGLRAPPKSCQHNGTMYQHGEIFSAHELFPSRLPNQCVLCSCTEGQIYCGLTTCPEPGCPAPLPLPDSCCQACKDEASEQSDEEDSVQSLHGVRHPQDPCSSDAGRKRGPGTPAPTGLSAPLSFIPRHFRPKGAGSTTVKIVLKEKHKKACVHGGKTYSHGEVWHPAFRAFGPLPCILCTCEDGRQDCQRVTCPTEYPCRHPEKVAGKCCKICPEDKADPGHSEISSTRCPKAPGRVLVHTSVSPSPDNLRRFALEHEASDLVEIYLWKLVKGIFHLTQIKKVRKQDFQKEAQHFRLLAGPHEGHWNVFLAQTLELKVTASPDKVTKT
modifications: Asn-linked glycan (predicted at Asn 114)
notes: residues of the vector between the secretion signal and CHRDL2; Chordin-like protein 2 (CHRDL2), human, UniProt Q6WN34, residues A25–T429; also called Chordin superfamily member CHRDL2; source: expressed and purified from dialyzed media using IMAC followed by SEC as the full-length TWSG1
B3: human BMP2 (ligand, UniProt P12643 283-396, looked up)
chain: QAKHKQRKRLKSSCKRHPLYVDFSDVGWNDWIVAPPGYHAFYCHGECPFPLADHLNSTNHAIVQTLVNSVNSKIPKACCVPTELSAISMLYLDENEKVVLKNYQDMVVEGCGCR
notes: Bone morphogenetic protein 2 (BMP2), human; it speaks of BMP ligands in general as dimeric
B4: human BMP7 (ligand, UniProt P18075 293-431, looked up)
chain: STGSKQRSQNRSKTPKNQEALRMANVAENSSSDQRQACKKHELYVSFRDLGWQDWIIAPEGYAAYYCEGECAFPLNSYMNATNHAIVQTLVHFINPETVPKPCCAPTQLNAISVLYFDDSSNVILKKYRNMVVRACGCH
notes: Bone morphogenetic protein 7 (BMP7), human; source: bought: Miltenyi Biotec
B5: human Twisted gastrulation (TWSG1), full-length glycosylated TWSG1 (Cys26–Phe223) (natural protein)
chain: ETGCNKALCASDVSKCLIQELCQCRPGEGNCSCCKECMLCLGALWDECCDCVGMCNPRNYSDTPPTSKSTVEELHEPIPSLFRALTEGDTQLNWNIVSFPVAEELSHHENLVSFLETVNQPHHQNVSVPSNNVHAPYSSDKEHMCTVVYFDDCMSIHQCKISCESMGASKYRWFHNACCECIGPECIDYGSKTVKCMNCMF
modifications: Asn-linked glycans (predicted at Asn 52, 81 and 147); fully glycosylated for binding, cellular and SEC-MALS assays; cut down to one N-acetylglucosamine with endoglycosidase F1 for crystallization
notes: residues of the vector between the secretion signal and TWSG1; Twisted gastrulation (TWSG1), human, UniProt Q9GZX9, residues C26–F223; Monomer-dimer equilibrium in solution; also called full-length TWSG1; wild-type TWSG1; source: HEK-293T, transient transfection, secreted, purified (IMAC, SEC)
B6: human Growth Differentiation Factor 5 (GDF5, A382–R501) (ligand)
chain: MAPLATRQGKRPSKNLKARCSRKALHVNFKDMGWDDWIIAPLEYEAFHCEGLCEFPLRSHLEPTNHAVIQTLMNSMDPESTPPTCCVPTRLSPISILFIDSANNVVYKQYEDMVVESCGCR
notes: N-terminal methionine of the expression construct; Growth differentiation factor 5 (GDF5), human, UniProt P43026, residues A382–R501, no tags; Disulfide-linked dimer

Experiments:
[1] = target: the molecule itself; assay: SEC-MALS; Superdex 200 HR 10/30, 150 mM NaCl, 10 mM HEPES pH 7.5, 2 mM CaCl2, 21 °C; proteins at 2 mg/ml, 0.1 ml per injection
human BMP2 = target: B3; assay: SPR; equilibrium binding, Biacore T200, 25 °C; BMP2, BMP7, GDF5 or CHRDL2 amine-coupled to a CM5 chip, TWSG1 proteins as analytes; 0.15 M NaCl, 20 mM HEPES pH 7.5, 2 mM CaCl2, 0.005% Tween 20; 1:1 binding isotherm; details: both partners purified
human BMP7 = target: B4; assay: as above; details: both partners purified
human CHRDL2 (A25–T429) [2] = target: B1; assay: as above; details: both partners purified
[3] = target: B6; assay: as above; details: both partners purified
[4] = target: B5; assay: as above; details: both partners purified
TWSG1 Ile40Ala = TWSG1 Ile40Ala (human, UniProt Q9GZX9 26-223, Ile40Ala, Asn-linked glycans (predicted Asn52, Asn81, Asn147; fully glycosylated, HEK-type expression without kifunensine); disulfide-rich. Parent construct inferred: the methods state that the C26-F223 constru); assay: SPR; as a1, BMP7 immobilized at higher level (7372 RU); details: both partners purified
human CHRDL2 (A25–T429) [5] = target: B1; assay: SEC-MALS; Superdex 200 HR 10/30, 150 mM NaCl, 10 mM HEPES pH 7.5, 2 mM CaCl2, 21 °C; proteins at 2 mg/ml, 0.1 ml per injection; details: both partners purified
[6] = target: the molecule itself; assay: crystal structure; TWSG1 NTD and GDF5 mixed 1:1 mol:mol, crystallized with CaCl2; 1.96 Å

Binder: B1
binding result [1]: binds

fold weaker than the TWSG1 NTD (human BMP2): ~100 fold | fold weaker than the TWSG1 NTD (human BMP7): ~100 fold | Kd (human CHRDL2 (A25–T429) [2]): 460 nM | fold weaker than the TWSG1 NTD [3]: ~100 fold
B2: human TWSG1 C-terminal domain (TWSG1 CTD, T85–F223) (domain or fragment)
chain: ETGTPPTSKSTVEELHEPIPSLFRALTEGDTQLNWNIVSFPVAEELSHHENLVSFLETVNQPHHQNVSVPSNNVHAPYSSDKEHMCTVVYFDDCMSIHQCKISCESMGASKYRWFHNACCECIGPECIDYGSKTVKCMNCMF
notes: residues of the vector between the secretion signal and the TWSG1 domain; Twisted gastrulation (TWSG1), human, C-terminal domain, residues T85–F223; The methods sentence on this construct says 'followed by ETG, TWSG1 NTD' where CTD must be meant; The structural description gives the CTD as Pro87–Phe223; source: expressed and purified from dialyzed media using IMAC followed by SEC as the …

Binder: B3
binding result [4]: binds

Binder: B4
binding result [4]: binds | Kd (TWSG1 Ile40Ala): 454000 nM

Binder: B5
binding result (human CHRDL2 (A25–T429) [5]): binds | stoichiometry N [1]: 2

Binder: B6
binding result [4]: binds | binding result [6]: binds

Kd (human BMP2): 1010 nM | Kd (human BMP7): 94 nM | Kd [3]: 380 nM
B7: human TWSG1 N-terminal domain (TWSG1 NTD, C26–S83) (domain or fragment)
chain: ETGCNKALCASDVSKCLIQELCQCRPGEGNCSCCKECMLCLGALWDECCDCVGMCNPRNYS
notes: residues of the vector between the secretion signal and TWSG1 NTD; Twisted gastrulation (TWSG1), human, N-terminal domain, residues C26–S83; Treated with endoglycosidase F1 in the purification described; The structural description gives the NTD as Cys26–Arg80; source: expressed and purified from dialyzed media similar to full-length TWSG1 (IMAC, HRV 3C cleavage, IMAC, SEC); not shown: mono Venus …
